{"source": "paper PMC6366636", "key": {"[1]": {"molecular_target": "Cry1Ab toxin of Bacillus thuringiensis subsp. berliner 1715 (trypsin-activated) (Bacillus thuringiensis subsp. berliner 1715) (UniProt P0A370)", "test": "native gel or EMSA"}, "[2]": {"molecular_target": "Fluorescently labeled EC12 probe (EC12 A36C/Y44W conjugated with Alexa-488) (Manduca sexta)", "test": "native gel or EMSA"}}}
{"substance": "EC12_(SQ/AA) (alanine substitution of the serine-glutamine dipeptide in EC12) (domain or fragment)", "values": [{"measurement": "decrease of the capacity to compete with the EC12 probe, against EC12WT", "setting": "[1]", "result": 50, "unit": "%"}]}
{"substance": "Cry1Ab toxin of Bacillus thuringiensis subsp. berliner 1715 (trypsin-activated) (from UniProt P0A370 1-1155) (natural protein)", "values": [{"measurement": "Kd", "setting": "[2]", "result": 0.0195, "unit": "µM"}]}
